Reference: publication doi:10.1101/2021.03.22.436490

What was measured:
[1] = target: Vibrio cholerae Chromosome 2 ParA (ParA2vc) (Vibrio cholerae); assay: negative-stain EM
[2] = target: Vibrio cholerae Chromosome 2 ParA (ParA2vc) (Vibrio cholerae); assay: crystal structure
[3] = target: Vibrio cholerae Chromosome 2 ParA (ParA2vc) (Vibrio cholerae); assay: crystal structure; remark: listed apart in the source

Measured: stoichiometry N

Vibrio cholerae Chromosome 2 ParA (ParA2vc) (natural protein)
2: [1] | [2] | [3]
